Test results from paper PMC11551757, “Phylogenomic instructed target analysis reveals ELAV complex binding to multiple optimally spaced U-rich motifs”.

T1: ELAV (rELAV) (Drosophila melanogaster?) (UniProt P16914)
T1 sequence: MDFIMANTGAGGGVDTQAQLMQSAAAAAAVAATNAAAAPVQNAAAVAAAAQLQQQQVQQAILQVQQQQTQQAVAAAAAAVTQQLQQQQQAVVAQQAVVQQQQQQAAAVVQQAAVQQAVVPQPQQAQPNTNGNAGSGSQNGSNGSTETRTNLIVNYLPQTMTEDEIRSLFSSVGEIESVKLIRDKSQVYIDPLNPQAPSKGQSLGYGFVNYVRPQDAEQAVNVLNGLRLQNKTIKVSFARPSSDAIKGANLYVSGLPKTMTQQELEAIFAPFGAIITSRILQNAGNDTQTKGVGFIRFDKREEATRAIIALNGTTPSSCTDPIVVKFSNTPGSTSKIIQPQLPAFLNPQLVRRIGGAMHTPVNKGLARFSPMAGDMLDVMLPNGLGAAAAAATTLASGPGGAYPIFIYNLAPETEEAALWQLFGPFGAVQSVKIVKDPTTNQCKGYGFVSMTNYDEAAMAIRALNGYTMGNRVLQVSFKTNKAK

T2: ELAV (rELAV) (UniProt P16914 1-483)
T2 sequence: T1 sequence


Tests used:
ELAV (rELAV) [1] = target: T1, ELAV (rELAV); assay: EMSA; conditions: EMSA: 50 mM Tris-HCl pH 7.5, 60 mM NaCl, 25 ug/ml tRNA, 0.5 mM DTT, 50 ug/ml acetylated BSA, 20 min; 4-6% native gel in 0.5x TBE at 4 C. Footprinting: …
ELAV (rELAV) [2] = target: T2, ELAV (rELAV); assay: EMSA; EMSA: 50 mM Tris-HCl pH 7.5, 60 mM NaCl, 25 ug/ml tRNA, 0.5 mM DTT, 50 ug/ml acetylated BSA, 20 min; 4-6% native gel in 0.5x TBE at 4 C. Footprinting: complexes formed as for EMSA, 15 min at room temperature; conditions: protein: recombinant; tags: GST tag, cleaved off with PreScission protease

Molecule	Kd (ELAV (rELAV) [1]) [nM]	binding signal (ELAV (rELAV) [2])
5PtaseI RNA	24	
CG4662 RNA	80	
Ect4 RNA	100	
Teh2 RNA	430	
GAAGCUAUUAUACAUUUUAUCUUAUAACUCUAUACUUUAUGUU (ssRNA) [M7H A(CU)2 in m3r]		2.5 fold lower affinity than M7H
